What was measured:
HeLa Kyoto [1] = experiment: melting temperature (median over replicates), in situ; higher = more thermally stable
HeLa Kyoto [2] = experiment: solubility change mitosis vs G1/S (difference of NP-40 vs SDS log2 ratios) (log2 ratio difference); higher = more soluble in mitosis
HeLa Kyoto [3] = experiment: thermal stability score vs G1/S (z-score of summed log2 fold changes over temperatures); higher = more thermally stable than in G1/S
HeLa Kyoto [4] = experiment: solubility in G1/S (NP-40 vs SDS abundance) (log2 ratio); higher = more soluble; conditions: cell cycle stage: G1/S
[5] = cell cycle stage: early G1 (4.5 h after nocodazole release)
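Throughout, for melting temperature (median over replicates), in situ: HeLa Kyoto cells synchronized by double thymidine or nocodazole block, proteins quantified by TMT10plex mass spectrometry, three independent biological replicates.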
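Throughout, for solubility change mitosis vs G1/S (difference of NP-40 vs SDS log2 ratios): synchronized HeLa Kyoto cells (double thymidine block for G1/S, nocodazole release for mitosis), protein amounts in NP-40 versus SDS lysates quantified by mass spectrometry, three biological replicates.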
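Throughout, for solubility in G1/S (NP-40 vs SDS abundance): HeLa Kyoto cells arrested at G1/S by double thymidine block, proteins quantified by TMT10plex mass spectrometry in mild NP-40 versus SDS extracts, three biological replicates.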
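Throughout, for thermal stability score vs G1/S (z-score of summed log2 fold changes over temperatures): synchronized HeLa Kyoto cells, proteins quantified by TMT10plex mass spectrometry, three biological replicates, mitosis taken 0.5 h after nocodazole release, G1/S directly after double thymidine block.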

Chain of NCOA3 (chain, as listed by the source): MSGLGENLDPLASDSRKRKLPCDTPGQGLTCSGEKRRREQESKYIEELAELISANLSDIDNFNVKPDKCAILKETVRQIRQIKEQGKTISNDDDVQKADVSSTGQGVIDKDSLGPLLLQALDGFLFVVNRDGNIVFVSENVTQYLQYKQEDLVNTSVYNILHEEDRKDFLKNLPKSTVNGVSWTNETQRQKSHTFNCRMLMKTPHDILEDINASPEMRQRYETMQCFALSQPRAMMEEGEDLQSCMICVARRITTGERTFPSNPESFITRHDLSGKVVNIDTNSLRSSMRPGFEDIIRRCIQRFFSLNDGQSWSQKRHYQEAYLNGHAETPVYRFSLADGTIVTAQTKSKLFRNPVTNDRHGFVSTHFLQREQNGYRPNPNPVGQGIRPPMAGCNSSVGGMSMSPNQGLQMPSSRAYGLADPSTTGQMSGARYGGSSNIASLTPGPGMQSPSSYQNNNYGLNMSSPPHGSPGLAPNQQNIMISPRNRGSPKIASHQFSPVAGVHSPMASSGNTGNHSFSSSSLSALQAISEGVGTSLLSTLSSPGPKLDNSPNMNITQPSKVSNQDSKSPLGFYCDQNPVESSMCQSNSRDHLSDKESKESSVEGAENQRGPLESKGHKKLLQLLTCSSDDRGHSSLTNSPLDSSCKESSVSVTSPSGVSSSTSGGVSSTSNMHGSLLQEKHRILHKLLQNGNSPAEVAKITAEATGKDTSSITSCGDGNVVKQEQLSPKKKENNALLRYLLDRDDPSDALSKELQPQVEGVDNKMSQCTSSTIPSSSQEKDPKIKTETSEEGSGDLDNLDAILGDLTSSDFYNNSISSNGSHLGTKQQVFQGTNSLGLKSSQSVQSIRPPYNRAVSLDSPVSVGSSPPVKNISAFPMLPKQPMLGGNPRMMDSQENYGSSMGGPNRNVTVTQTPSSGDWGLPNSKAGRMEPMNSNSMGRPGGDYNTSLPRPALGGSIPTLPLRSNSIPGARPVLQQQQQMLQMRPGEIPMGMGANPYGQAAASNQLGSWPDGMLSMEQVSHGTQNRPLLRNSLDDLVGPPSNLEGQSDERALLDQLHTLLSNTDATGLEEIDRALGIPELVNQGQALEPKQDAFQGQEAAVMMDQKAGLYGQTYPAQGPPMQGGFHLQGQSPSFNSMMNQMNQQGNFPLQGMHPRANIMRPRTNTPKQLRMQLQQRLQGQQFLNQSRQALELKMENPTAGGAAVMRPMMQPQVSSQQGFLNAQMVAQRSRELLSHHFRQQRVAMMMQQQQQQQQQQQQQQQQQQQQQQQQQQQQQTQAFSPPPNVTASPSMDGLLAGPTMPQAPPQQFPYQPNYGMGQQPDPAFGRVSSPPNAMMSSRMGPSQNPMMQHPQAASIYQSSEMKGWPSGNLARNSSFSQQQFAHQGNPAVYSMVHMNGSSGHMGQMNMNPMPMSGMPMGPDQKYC

Row | Substance | melting temperature (HeLa Kyoto [1]; cell cycle stage: G1/S) | melting temperature (HeLa Kyoto [1]; cell cycle stage: mitosis) | solubility change mitosis (log2) (HeLa Kyoto [2]) | thermal stability score (HeLa Kyoto [3]; [5]) | thermal stability score (HeLa Kyoto [3]; cell cycle stage: mitosis) | solubility in G1/S (log2) (HeLa Kyoto [4])
1 | MATPGNLGSSVLASKTKTKKKHFVAQKVKLFRASDPLLSVLMWGVNHSINELSHVQIPVMLMPDDFKAYSKIKVDNHLFNKENMPSHFKFKEYCPMVFRNLRERFGIDDQDFQNSLTRSAPLPNDSQARSGARFHTSYDKRYIIKTITSEDVAEMHNILKKYHQYIVECHGITLLPQFLGMYRLNVDGVEIYVIVTRNVFSHRLSVYRKYDLKGSTVAREASDKEKAKELPTLKDNDFINEGQKIYIDDNNKKVFLEKLKKDVEFLAQLKLMDYSLLVGIHDVERAEQEEVECEENDGEEEGESDGTHPVGTPPDSPGNTLNSSPPLAPGEFDPNIDVYGIKCHENSPRKEVYFMAIIDILTHYDAKKKAAHAAKTVKHGAGAEISTVNPEQYSKRFLDFIGHILT [PIP4K2A] | 49.8 °C | 49.4 °C | -0.142 | 2.24 | 1.11 | 0.309
2 | MRECISVHVGQAGVQMGNACWELYCLEHGIQPDGQMPSDKTIGGGDDSFTTFFCETGAGKHVPRAVFVDLEPTVIDEIRNGPYRQLFHPEQLITGKEDAANNYARGHYTIGKEIIDPVLDRIRKLSDQCTGLQGFLVFHSFGGGTGSGFTSLLMERLSVDYGKKSKLEFSIYPAPQVSTAVVEPYNSILTTHTTLEHSDCAFMVDNEAIYDICRRNLDIERPTYTNLNRLISQIVSSITASLRFDGALNVDLTEFQTNLVPYPRIHFPLATYAPVISAEKAYHEQLSVAEITNACFEPANQMVKCDPRHGKYMACCLLYRGDVVPKDVNAAIAAIKTKRSIQFVDWCPTGFKVGINYQPPTVVPGGDLAKVQRAVCMLSNTTAIAEAWARLDHKFDLMYAKRAFVHWYVGEGMEEGEFSEAREDMAALEKDYEEVGIDSYEDEDEGEE [TUBA4A] | 55.6 °C | 54.2 °C | -0.138 | -0.775 | -2.94 | 0.111
3 | SAR1A | 52 °C | 52.8 °C | -0.239 | 2.01 | 1.85 | 0.207
4 | MGDAPSPEEKLHLITRNLQEVLGEEKLKEILKERELKIYWGTATTGKPHVAYFVPMSKIADFLKAGCEVTILFADLHAYLDNMKAPWELLELRVSYYENVIKAMLESIGVPLEKLKFIKGTDYQLSKEYTLDVYRLSSVVTQHDSKKAGAEVVKQVEHPLLSGLLYPGLQALDEEYLKVDAQFGGIDQRKIFTFAEKYLPALGYSKRVHLMNPMVPGLTGSKMSSSEEESKIDLLDRKEDVKKKLKKAFCEPGNVENNGVLSFIKHVLFPLKSEFVILRDEKWGGNKTYTAYVDLEKDFAAEVVHPGDLKNSVEVALNKLLDPIREKFNTPALKKLASAAYPDPSKQKPMAKGPAKNSEPEEVIPSRLDIRVGKIITVEKHPDADSLYVEKIDVGEAEPRTVVSGLVQFVPKEELQDRLVVVLCNLKPQKMRGVESQGMLLCASIEGINRQVEPLDPPAGSAPGEHVFVKGYEKGQPDEELKPKKKVFEKLQADFKISEECIAQWKQTNFMTKLGSISCKSLKGGNIS [YARS] | 49.3 °C | 49.4 °C | -0.092 | 0.25 | 2.33 | 0.259
5 | MGIQTSPVLLASLGVGLVTLLGLAVGSYLVRRSRRPQVTLLDPNEKYLLRLLDKTTVSHNTKRFRFALPTAHHTLGLPVGKHIYLSTRIDGSLVIRPYTPVTSDEDQGYVDLVIKVYLKGVHPKFPEGGKMSQYLDSLKVGDVVEFRGPSGLLTYTGKGHFNIQPNKKSPPEPRVAKKLGMIAGGTGITPMLQLIRAILKVPEDPTQCFLLFANQTEKDIILREDLEELQARYPNRFKLWFTLDHPPKDWAYSKGFVTADMIREHLPAPGDDVLVLLCGPPPMVQLACHPNLDKLGYSQKMRFTY [CYB5R1] | 54.1 °C | 55.3 °C | -0.041 | -0.825 | -0.661 | 0.339
6 | MGLQLRALLGAFGRWTLRLGPRPSCSPRMAGNAEPPPAGAACPQDRRSCSGRAGGDRVWEDGEHPAKKLKSGGDEERREKPPKRKIVLLMAYSGKGYHGMQRNVGSSQFKTIEDDLVSALVRSGCIPENHGEDMRKMSFQRCARTDKGVSAAGQVVSLKVWLIDDILEKINSHLPSHIRILGLKRVTGGFNSKNRCDARTYCYLLPTFAFAHKDRDVQDETYRLSAETLQQVNRLLACYKGTHNFHNFTSQKGPQDPSACRYILEMYCEEPFVREGLEFAVIRVKGQSFMMHQIRKMVGLVVAIVKGYAPESVLERSWGTEKVDVPKAPGLGLVLERVHFEKYNQRFGNDGLHEPLDWAQEEGKVAAFKEEHIYPTIIGTERDERSMAQWLSTLPIHNFSATALTAGGTGAKVPSPLEGSEGDGDTD [PUS1] | 46.8 °C | 48.7 °C | -0.119 | 1.9 | 6.23 | 0.281
7 | MADPDVLTEVPAALKRLAKYVIRGFYGIEHALALDILIRNSCVKEEDMLELLKFDRKQLRSVLNNLKGDKFIKCRMRVETAADGKTTRHNYYFINYRTLVNVVKYKLDHMRRRIETDERDSTNRASFKCPVCSSTFTDLEANQLFDPMTGTFRCTFCHTEVEEDESAMPKKDARTLLARFNEQIEPIYALLRETEDVNLAYEILEPEPTEIPALKQSKDHAATTAGAASLAGGHHREAWATKGPSYEDLYTQNVVINMDDQEDLHRASLEGKSAKERPIWLRESTVQGAYGSEDMKEGGIDMDAFQEREEGHAGPDDNEEVMRALLIHEKKTSSAMAGSVGAAAPVTAANGSDSESETSESDDDSPPRPAAVAVHKREEDEEEDDEFEEVADDPIVMVAGRPFSYSEVSQRPELVAQMTPEEKEAYIAMGQRMFEDLFE [GTF2E1] | 48.4 °C | 49.4 °C | -0.0795 | 2.94 | 5.05 | -0.111
8 | MGGAVVDEGPTGVKAPDGGWGWAVLFGCFVITGFSYAFPKAVSVFFKELIQEFGIGYSDTAWISSILLAMLYGTGPLCSVCVNRFGCRPVMLVGGLFASLGMVAASFCRSIIQVYLTTGVITGLGLALNFQPSLIMLNRYFSKRRPMANGLAAAGSPVFLCALSPLGQLLQDRYGWRGGFLILGGLLLNCCVCAALMRPLVVTAQPGSGPPRPSRRLLDLSVFRDRGFVLYAVAASVMVLGLFVPPVFVVSYAKDLGVPDTKAAFLLTILGFIDIFARPAAGFVAGLGKVRPYSVYLFSFSMFFNGLADLAGSTAGDYGGLVVFCIFFGISYGMVGALQFEVLMAIVGTHKFSSAIGLVLLMEAVAVLVGPPSGGKLLDATHVYMYVFILAGAEVLTSSLILLLGNFFCIRKKPKEPQPEVAAAEEEKLHKPPADSGVDLREVEHFLKAEPEKNGEVVHTPETSV [SLC16A3] | 60.1 °C | 61.9 °C | -0.161 | -4.29 | -4.22 | 0.106
9 | SEPHS1 | 58.8 °C | 58.8 °C | -0.0554 | -1.3 | -1.24 | 0.503
10 | MKNQDKKNGAAKQSNPKSSPGQPEAGPEGAQERPSQAAPAVEAEGPGSSQAPRKPEGAQARTAQSGALRDVSEELSRQLEDILSTYCVDNNQGGPGEDGAQGEPAEPEDAEKSRTYVARNGEPEPTPVVNGEKEPSKGDPNTEEIRQSDEVGDRDHRRPQEKKKAKGLGKEITLLMQTLNTLSTPEEKLAALCKKYAELLEEHRNSQKQMKLLQKKQSQLVQEKDHLRGEHSKAVLARSKLESLCRELQRHNRSLKEEGVQRAREEEEKRKEVTSHFQVTLNDIQLQMEQHNERNSKLRQENMELAERLKKLIEQYELREEHIDKVFKHKDLQQQLVDAKLQQAQEMLKEAEERHQREKDFLLKEAVESQRMCELMKQQETHLKQQLALYTEKFEEFQNTLSKSSEVFTTFKQEMEKMTKKIKKLEKETTMYRSRWESSNKALLEMAEEKTVRDKELEGLQVKIQRLEKLCRALQTERNDLNKRVQDLSAGGQGSLTDSGPERRPEGPGAQAPSSPRVTEAPCYPGAPSTEASGQTGPQEPTSARA [TXLNA] | 52.5 °C | 52.6 °C | 0.248 | 0.411 | -0.854 | 0.802
11 | MAGPRGALLAWCRRQCEGYRGVEIRDLSSSFRDGLAFCAILHRHRPDLLDFDSLSKDNVFENNRLAFEVAEKELGIPALLDPNDMVSMSVPDCLSIMTYVSQYYNHFCSPGQAGVSPPRKGLAPCSPPSVAPTPVEPEDVAQGEELSSGSLSEQGTGQTPSSTCAACQQHVHLVQRYLADGRLYHRHCFRCRRCSSTLLPGAYENGPEEGTFVCAEHCARLGPGTRSGTRPGPFSQPKQQHQQQLAEDAKDVPGGGPSSSAPAGAEADGPKASPEARPQIPTKPRVPGKLQELASPPAGRPTPAPRKASESTTPAPPTPRPRSSLQQENLVEQAGSSSLVNGRLHELPVPKPRGTPKPSEGTPAPRKDPPWITLVQAEPKKKPAPLPPSSSPGPPSQDSRQVENGGTEEVAQPSPTASLESKPYNPFEEEEEDKEEEAPAAPSLATSPALGHPESTPKSLHPWYGITPTSSPKTKKRPAPRAPSASPLALHASRLSHSEPPSATPSPALSVESLSSESASQTAGAELLEPPAVPKSSSEPAVHAPGTPGNPVSLSTNSSLASSGELVEPRVEQMPQASPGLAPRTRGSSGPQPAKPCSGATPTPLLLVGDRSPVPSPGSSSPQLQVKSSCKENPFNRKPSPAASPATKKATKGSKPVRPPAPGHGFPLIKRKVQADQYIPEEDIHGEMDTIERRLDALEHRGVLLEEKLRGGLNEGREDDMLVDWFKLIHEKHLLVRRESELIYVFKQQNLEQRQADVEYELRCLLNKPEKDWTEEDRAREKVLMQELVTLIEQRNAIINCLDEDRQREEEEDKMLEAMIKKKEFQREAEPEGKKKGKFKTMKMLKLLGNKRDAKSKSPRDKS [MICALL1] | 49.4 °C | 50.5 °C | -0.0692 | -0.815 | 1.14 | 0.417
12 | MPPRRSIVEVKVLDVQKRRVPNKHYVYIIRVTWSSGSTEAIYRRYSKFFDLQMQMLDKFPMEGGQKDPKQRIIPFLPGKILFRRSHIRDVAVKRLIPIDEYCKALIQLPPYISQCDEVLQFFETRPEDLNPPKEEHIGKKKSGGDQTSVDPMVLEQYVVVANYQKQESSEISLSVGQVVDIIEKNESGWWFVSTAEEQGWVPATCLEGQDGVQDEFSLQPEEEEKYTVIYPYTARDQDEMNLERGAVVEVIQKNLEGWWKIRYQGKEGWAPASYLKKNSGEPLPPKPGPGSPSHPGALDLDGVSRQQNAVGREKELLSSQRDGRFEGRPVPDGDAKQRSPKMRQRPPPRRDMTIPRGLNLPKPPIPPQVEEEYYTIAEFQTTIPDGISFQAGLKVEVIEKNLSGWWYIQIEDKEGWAPATFIDKYKKTSNASRPNFLAPLPHEVTQLRLGEAAALENNTGSEATGPSRPLPDAPHGVMDSGLPWSKDWKGSKDVLRKASSDMSASAGYEEISDPDMEEKPSLPPRKESIIKSEGELLERERERQRTEQLRGPTPKPPGVILPMMPAKHIPPARDSRRPEPKPDKSRLFQLKNDMGLECGHKVLAKEVKKPNLRPISKSKTDLPEEKPDATPQNPFLKSRPQVRPKPAPSPKTEPPQGEDQVDICNLRSKLRPAKSQDKSLLDGEGPQAVGGQDVAFSRSFLPGEGPGRAQDRTGKQDGLSPKEISCRAPPRPAKTTDPVSKSVPVPLQEAPQQRPVVPPRRPPPPKKTSSSSRPLPEVRGPQCEGHESRAAPTPGRALLVPPKAKPFLSNSLGGQDDTRGKGSLGPWGTGKIGENREKAAAASVPNADGLKDSLYVAVADFEGDKDTSSFQEGTVFEVREKNSSGWWFCQVLSGAPSWEGWIPSNYLRKKP [SH3PXD2B] | 48.9 °C | 49.9 °C | -0.129 | -0.513 | 0.253 | -0.0158
13 | NCOA3 | 51.2 °C | 49.8 °C | -0.0688 | 0.836 | 1.22 | 0.355
14 | SMG1 | 50.3 °C | 50.2 °C | -0.102 | -0.61 | -0.143 | -0.17
15 | MRKVVLITGASSGIGLALCKRLLAEDDELHLCLACRNMSKAEAVCAALLASHPTAEVTIVQVDVSNLQSVFRASKELKQRFQRLDCIYLNAGIMPNPQLNIKALFFGLFSRKVIHMFSTAEGLLTQGDKITADGLQEVFETNVFGHFILIRELEPLLCHSDNPSQLIWTSSRSARKSNFSLEDFQHSKGKEPYSSSKYATDLLSVALNRNFNQQGLYSNVACPGTALTNLTYGILPPFIWTLLMPAILLLRFFANAFTLTPYNGTEALVWLFHQKPESLNPLIKYLSATTGFGRNYIMTQKMDLDEDTAEKFYQKLLELEKHIRVTIQKTDNQARLSGSCL [HSD17B7] | 52.8 °C | 51 °C | -0.161 | -1.29 | -0.53 | -0.113

Source: the supplement of paper PMC5998384
